Data on one protein can be found in publication PMC5659210, “Extending the biocatalytic scope of regiocomplementary flavin-dependent halogenase enzymes” (Chemical Science, 2015).

Test in all cases: Michaelis-Menten chlorination assay, HPLC, Fre-coupled
Format in all cases: biochemical, Pseudomonas fluorescens
Common to all, as to details: Fre in excess, 30 °C

Substrate in data set [1]: NC(=O)c1ccccc1N
The text has this:
(§1) Michaelis-Menten chlorination assay, HPLC, Fre-coupled on PrnA

Substrate in data set [2]: N[C@@H](Cc1c[nH]c2ccccc12)C(=O)O
Description: as §1

Substrate in data set [3]: Nc1ccccc1C(=O)C[C@H](N)C(=O)O
Description: as §1

Substrate in data set [4]: Nc1ccccc1C(=O)O
Description: as §1

B1: PrnA (Pseudomonas fluorescens) (protein)
chain: MNKPIKNIVIVGGGTAGWMAASYLVRALQQQANITLIESAAIPRIGVGEATIPSLQKVFFDFLGIPEREWMPQVNGAFKAAIKFVNWRKSPDPSRDDHFYHLFGNVPNCDGVPLTHYWLRKREQGFQQPMEYACYPQPGALDGKLAPCLSDGTRQMSHAWHFDAHLVADFLKRWAVERGVNRVVDEVVDVRLNNRGYISNLLTKEGRTLEADLFIDCSGMRGLLINQALKEPFIDMSDYLLCDSAVASAVPNDDARDGVEPYTSSIAMNSGWTWKIPMLGRFGSGYVFSSHFTSRDQATADFLKLWGLSDNQPLNQIKFRVGRNKRAWVNNCVSIGLSSCFLEPLESTGIYFIYAALYQLVKHFPDTSFDPRLSDAFNAEIVHMFDDCRDFVQAHYFTTSRDDTPFWLANRHDLRLSDAIKEKVQRYKAGLPLTTTSFDDSTYYETFDYEFKNFWLNGNYYCIFAGLGMLPDRSLPLLQHRPESIEKAEAMFASIRREAERLRTSLPTNYDYLRSLRDGDAGLSRGQRGPKLAAQESL
notes: full-length, pET28a (NdeI/NotI), expressed in E. coli Arctic Express, HisTrap purified
For the protein B1, the Km was found to be 3267 ± 491 µM in data set [1], 0.7 ± 0.1 µM in data set [2], 19.0 ± 2.2 µM in data set [3] and 3161 ± 986 µM in data set [4]. Besides, the kcat in data set [1] amounted to 0.035 ± 0.00167 s⁻¹; in data set [2], 0.0183 ± 0.000833 s⁻¹; in data set [3] it was 0.0617 ± 0.00167 s⁻¹; in data set [4], 0.0085 ± 0.00117 s⁻¹. Also, the kcat/Km in data set [1] came to 11.7 ± 1.67 M⁻¹ s⁻¹; in data set [2], 28300 ± 3330 M⁻¹ s⁻¹; in data set [3], 3330 ± 167 M⁻¹ s⁻¹; in data set [4] it was 2.67 ± 0.833 M⁻¹ s⁻¹.

What is called Km is the substrate concentration at which the rate is half of its maximum. For orientation: kcat means the maximal rate divided by the concentration of active sites. As usually defined, the kcat/Km is the second-order rate constant that governs catalysis at low substrate concentration.
